Results published in patent US20050266469A1, “Alternatively spliced isoforms of checkpoint kinase 1 (CHK1)” (priority 2004, published 2005).

T1: reference CHK1 (Homo sapiens, UniProt O14757)
T1 sequence (O14757 1-476): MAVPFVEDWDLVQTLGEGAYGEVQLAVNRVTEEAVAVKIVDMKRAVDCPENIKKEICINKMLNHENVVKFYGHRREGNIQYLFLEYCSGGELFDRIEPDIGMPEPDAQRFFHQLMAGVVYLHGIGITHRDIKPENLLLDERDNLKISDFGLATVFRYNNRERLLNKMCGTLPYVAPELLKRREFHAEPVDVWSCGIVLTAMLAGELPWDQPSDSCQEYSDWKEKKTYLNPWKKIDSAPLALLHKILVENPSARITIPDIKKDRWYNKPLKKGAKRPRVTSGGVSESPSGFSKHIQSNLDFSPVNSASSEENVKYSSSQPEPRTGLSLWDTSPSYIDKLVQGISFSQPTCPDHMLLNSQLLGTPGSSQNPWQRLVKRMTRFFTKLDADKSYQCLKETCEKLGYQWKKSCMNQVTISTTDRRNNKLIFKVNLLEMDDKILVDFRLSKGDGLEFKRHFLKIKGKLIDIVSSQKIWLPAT

T2: CHK1sv1 (Homo sapiens, UniProt O14757)
T2 construct: made in house; host or cells: SF9 insect cells (baculovirus, pVL1393 transfer vector)
T2 sequence (O14757 with tags, fused parts or gaps): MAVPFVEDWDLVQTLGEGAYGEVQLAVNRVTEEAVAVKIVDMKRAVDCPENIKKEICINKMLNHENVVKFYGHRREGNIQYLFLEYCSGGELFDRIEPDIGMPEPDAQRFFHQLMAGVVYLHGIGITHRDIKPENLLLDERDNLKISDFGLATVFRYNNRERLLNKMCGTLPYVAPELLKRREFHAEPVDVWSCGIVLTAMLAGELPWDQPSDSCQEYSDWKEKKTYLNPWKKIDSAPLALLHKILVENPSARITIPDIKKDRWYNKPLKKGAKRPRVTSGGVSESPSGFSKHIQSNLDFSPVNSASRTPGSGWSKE


Key:
reference CHK1 = target: T1, reference CHK1; settings: previously described (O'Neill et al., 2002; Jackson et al., 2000); cited from earlier work
CHK1sv1 = target: T2, CHK1sv1; assay: CHK1sv1 kinase assay (Homogenous Time-Resolved Fluorescence, synthetic peptide substrate); assay type: biochemical; settings: phospho-peptide product per microgram of CHK1sv1; ATP and CDC25C peptide substrate at saturating concentrations
Method: CHK1sv1 activity was assayed in vitro using a synthetic peptide substrate. The phophopeptide product was quantitated using a Homogenous Time-Resolved Fluorescence assay system (Park et al., 1999, Anal. Biochem. 269:94-104). The reaction mixture contained 40 mM HEPES, pH 7.3; 100 mM NaCl; 10 mM MgCl2; 2 mM dithiothreitol; 0.1% BSA; 0.1 mM ATP; 0.5 μM peptide substrate; and 0.1 nM CHK1sv1 enzyme in a final volume of 40 μl. […] The kinase reaction was incubated for 30 minutes at 22° C., and then terminated with 60 μl Stop/Detection Buffer (40 mM HEPES, pH 7.3; 10 mM EDTA; 0.125% Triton X-100; 1.25% BSA; 250 nM PhycoLink Streptavidin-Allophycocyanin (APC) Conjugate (Prozyme, San Leandro, Calif.); and […] Europium-chelate labeled anti-phosphotyrosine antibody (PY20, Perkin Elmer, Boston, Mass.)). The reaction was allowed to equilibrate for 2 hours at 22° C., and relative fluorescent units were read on a Discovery plate reader (Packard Biosciences). ATP Km was determined by varying ATP concentration from 0.003 to 3 mM in the reaction described above and determining the relative enzymatic rates. […] CHK1sv1 Vmax was calculated by determining the amount of phospho-peptide product formed per microgram of CHKsv1 when both ATP and CDC25C peptide substrate are at saturating concentrations.

Molecule | Vmax (reference CHK1) | Vmax (CHK1sv1)
CHK1: human checkpoint kinase 1 reference protein (protein, UniProt O14757 1-476, looked up) Serine/threonine-protein …: MAVPFVEDWDLVQTLGEGAYGEVQLAVNRVTEEAVAVKIVDMKRAVDCPENIKKEICINKMLNHENVVKFYGHRREGNIQYLFLEYCSGGELFDRIEPDIGMPEPDAQRFFHQLMAGVVYLHGIGITHRDIKPENLLLDERDNLKISDFGLATVFRYNNRERLLNKMCGTLPYVAPELLKRREFHAEPVDVWSCGIVLTAMLAGELPWDQPSDSCQEYSDWKEKKTYLNPWKKIDSAPLALLHKILVENPSARITIPDIKKDRWYNKPLKKGAKRPRVTSGGVSESPSGFSKHIQSNLDFSPVNSASSEENVKYSSSQPEPRTGLSLWDTSPSYIDKLVQGISFSQPTCPDHMLLNSQLLGTPGSSQNPWQRLVKRMTRFFTKLDADKSYQCLKETCEKLGYQWKKSCMNQVTISTTDRRNNKLIFKVNLLEMDDKILVDFRLSKGDGLEFKRHFLKIKGKLIDIVSSQKIWLPAT | 0.6 nmol/min/µg | 
CHK1sv1: splice variant isoform of human CHK1 protein, exon 9 spliced to exon 11, expressed in SF9 insect cells (protein, listed as Homo sapiens) MAVPFVEDWDLVQTLGEGAYGEVQLAVNRVTEEAVAVKIVDMKRAVDCPENIKKEICINKMLNHENVVKFYGHRREGNIQYLFLEYCSGGELFDRIEPDIGMPEPDAQRFFHQLMAGVVYLHGIGITHRDIKPENLLLDERDNLKISDFGLATVFRYNNRERLLNKMCGTLPYVAPELLKRREFHAEPVDVWSCGIVLTAMLAGELPWDQPSDSCQEYSDWKEKKTYLNPWKKIDSAPLALLHKILVENPSARITIPDIKKDRWYNKPLKKGAKRPRVTSGGVSESPSGFSKHIQSNLDFSPVNSASRTPGSGWSKE |  | 36 nmol/min/µg
